Data taken from publication PMC3925092.

Columns and labels:
[1] = target: Hcp2 of enteroaggregative E. coli (second T6SS gene cluster), wild type (enteroaggregative E. coli 17-2); test: SEC-MALS; SEC/MALS/UV/RI on KW803 and KW804 columns (Shodex), Tris-HCl 20 mM pH 7.5, NaCl 100 mM, 0.5 ml/min; monomers in the hexamer
[2] = target: Hcp1 (hemolysin co-regulated protein 1) of the Sci-1 T6SS of enteroaggregative E. coli, wild type (enteroaggregative E. coli 17-2); test: as above
[3] = target: Hcp1 (hemolysin co-regulated protein 1) of the Sci-1 T6SS of enteroaggregative E. coli, wild type (enteroaggregative E. coli 17-2); test: SPR; BIAcore T200, 25°C; Hcp1 immobilised by amine coupling (CM5 chip in the results, HC200m Xantech chip in the methods), Hcp1 3.75-120 µM as analyte in HBS-EP; steady state, 1:1 equilibrium model; hexamer with hexamer; Hcp1WW tested in the same conditions
[4] = target: Hcp1 N93W/S158W double mutant (Hcp1WW) (enteroaggregative E. coli 17-2); test: SEC-MALS; MALLS-SEC-UV of Hcp1WW, data not shown; monomers in the hexamer

Substance: Hcp2 of enteroaggregative E. coli (second T6SS gene cluster), wild type (natural protein)
- stoichiometry N [1]: 6

Substance: Hcp1 (hemolysin co-regulated protein 1) of the Sci-1 T6SS of enteroaggregative E. coli, wild type (natural protein)
- stoichiometry N [2]: 6
- Kd [3]: 7.2 µM

Substance: Hcp1 N93W/S158W double mutant (Hcp1WW) (natural protein)
- stoichiometry N [4]: 6
